The results in this text go back to patent US20220064286A1 (Genentech, published 2022).

Assay [1] deals with T1, human TIGIT protein (human, UniProt Q495A1 22-141, limits assumed).
T1 construct: Recombinant protein (Genentech) used in ELISA screening and as SPR analyte; also called TIGIT antigen
T1 sequence: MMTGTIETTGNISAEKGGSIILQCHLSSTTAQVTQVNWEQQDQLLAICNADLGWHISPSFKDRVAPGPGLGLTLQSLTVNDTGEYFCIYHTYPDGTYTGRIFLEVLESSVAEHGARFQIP
Description: SPR, captured mAb. On the procedure: (§1) Briefly, a series S CM5 biosensor chip was activated with N-ethyl-N′-(3-dimethylaminopropyl)-carbodiimide hydrochloride (EDC) and N-hydroxysuccinimide (NHS) reagents according to the supplier's (GE Healthcare Biosciences, Piscataway, N.J.) instructions, and a human antibody capture kit was applied to couple goat anti-human Fc IgGs in order to achieve approximately 10,000 response units (RU) on each flow cell, followed by blocking un-reacted groups with 1M ethanolamine.
(§2) (flow rate: 30 μl/min) with no regeneration between injections. The sensorgrams were recorded and evaluated by BIAcore™ T200 Evaluation Software (version 2.0) after subtraction of reference cell signal. Association rates (kₒₙ) and dissociation rates (koff) were calculated using a simple one-to-one Langmuir binding model. The equilibrium dissociation constant (KD) was calculated as the ratio koff/kₒₙ.
(§3) The first humanized versions, h6B2, L1H1, h10A5.L1H1, h7E7, L1H1, and h15C8.L1H1, which contain both rat CDRs and framework residues at Vernier positions, and the fully humanized versions, h6B2.L2H5, h10A5.L4H4, h7E7.L5H9, and h15C8.L5H9, which contain only rat CDRs were subject to BIAcore affinity measurement by comparison with original rat antibodies, rat6B2, rat10A5, rat7E7 and rat 15C8. For binding affinity determinations of TIGIT antibodies against human TIGIT, cynomolgus monkey TIGIT and human alanine-scanned TIGIT mutants by single-cycle kinetics, Surface Plasmon Resonance (SRP) measurement with a BIACORE™-T200 instrument was used, as described above.
For orientation: Surface plasmon resonance follows binding to a sensor surface in real time, without labels.

Assay [2] addresses T2, cynomolgus monkey (cyno) TIGIT protein (cynomolgus monkey, UniProt A0A7N9I9V4 89-209). Description: SPR, captured mAb. On the procedure:
as §1, §2, §3

In assay [3] the target is T1, human TIGIT protein. Description: SPR, monovalent affinity.
Assay [4] has as its target T2, cynomolgus monkey (cyno) TIGIT protein. Put plainly: SPR, monovalent affinity.

T2 sequence (A0A7N9I9V4 entry or part of it): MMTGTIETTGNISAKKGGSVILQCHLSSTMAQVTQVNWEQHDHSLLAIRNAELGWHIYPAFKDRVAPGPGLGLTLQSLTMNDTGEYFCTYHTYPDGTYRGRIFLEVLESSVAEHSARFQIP

B1: h15C8.L1H1 (antibody, V domains shown)
VH: EVQLVQSGAEVKKPGASVKVSCKASGYTFTEHSIYWLRQAPGQRLEIIGRIDPKNGRTYFVDKFKNRATLTTDTSASTAYMELSSLRSEDTAVYFCARIDGFYFDFWGQGTLVTVSS
VL: DIQLTQSPSFLSASVGDRVTITCKGSQNVNKYLVWYQQKPGKAPKLLIYSTDNLQSGIPSRFSGSGSGTEYTLTISSLQPEDFATYFCYQYNNGFTFGQGTKVEIK
notes: First humanized version; FR/HVR pieces in order; also called h1.15C8.L1H1
In the case of B1, the Kd was determined as 0.39 nM with human TIGIT protein [1], 0.94 nM in assay [2], 0.58 nM with human TIGIT protein [3] and 1.39 nM in assay [4]. Moreover, the koff with human TIGIT protein [1] was found to be 0.000357 s⁻¹; in assay [2] it was 0.000464 s⁻¹. In addition, the on-rate constant (kon) was 922000 M⁻¹ s⁻¹ in the assay with human TIGIT protein [1] and 493000 M⁻¹ s⁻¹ in assay [2].

B2: h15C8.L3H1 (antibody, V domains shown)
VH: EVQLVQSGAEVKKPGASVKVSCKASGYTFTEHSIYWLRQAPGQRLEIIGRIDPKNGRTYFVDKFKNRATLTTDTSASTAYMELSSLRSEDTAVYFCARIDGFYFDFWGQGTLVTVSS
VL: DIQLTQSPSFLSASVGDRVTITCKGSQNVNKYLVWYQQKPGKAPKLLIYSTDNLQSGIPSRFSGSGSGTEFTLTISSLQPEDFATYFCYQYNNGFTFGQGTKVEIK
notes: VL: Y71F against h15C8.L1H1; FR/HVR pieces
Take B2: in the assay with human TIGIT protein [1], the Kd is 0.84 nM, the koff worked out at 0.000533 s⁻¹ and the kon worked out at 631000 M⁻¹ s⁻¹. In assay [2], this molecule yielded a Kd of 1.75 nM, a koff of 0.000588 s⁻¹ and a kon of 336000 M⁻¹ s⁻¹.

B3: h15C8.L4H1 (antibody, V domains shown)
VH: EVQLVQSGAEVKKPGASVKVSCKASGYTFTEHSIYWLRQAPGQRLEIIGRIDPKNGRTYFVDKFKNRATLTTDTSASTAYMELSSLRSEDTAVYFCARIDGFYFDFWGQGTLVTVSS
VL: DIQLTQSPSFLSASVGDRVTITCKGSQNVNKYLVWYQQKPGKAPKLLIYSTDNLQSGIPSRFSGSGSGTEYTLTISSLQPEDFATYYCYQYNNGFTFGQGTKVEIK
notes: VL: F87Y against h15C8.L1H1; FR/HVR pieces
In the assay with human TIGIT protein [1], B3 returned a Kd of 0.64 nM, a koff of 0.000611 s⁻¹ and a kon of 955000 M⁻¹ s⁻¹. In assay [2], this molecule showed a Kd of 1.15 nM, a koff of 0.000559 s⁻¹ and a kon of 485000 M⁻¹ s⁻¹.

B4: h7E7.L1H1 (antibody, V domains shown)
VH: EVQLVQSGAEVKKPGASVKVSCKASGYTFTEYSIYWVRQAPGQRLEIIGRIDPKNGRTYYVDKFKNRATLTADTSASTAYMELSSLRSEDTAVYFCTRIYGFYFDFWGQGTLVTVSS
VL: DIQLTQSPSFLSASVGDRVTITCKGSQNVNKYLVWYQQKPGKAPKLLIYNTDNLQSGIPSRFSGSGSGTEYTLTISSLQPEDFATYFCYQYNNGFTFGQGTKVEIK
notes: First humanized version; FR/HVR pieces in order; also called h1.7E7.L1H1
Consider B4, for which the Kd came to 0.23 nM with human TIGIT protein [1], 0.36 nM in assay [2], 0.33 nM with human TIGIT protein [3] and 0.51 nM in assay [4]. In addition, the koff stood at 0.000476 s⁻¹ in the assay with human TIGIT protein [1] and 0.000152 s⁻¹ in assay [2]. In addition, the figures for the kon (with human TIGIT protein [1]; in assay [2]) were 2.06e+06 M⁻¹ s⁻¹ and 418000 M⁻¹ s⁻¹, respectively.

B5: h15C8.L5aH9a (antibody, V domains shown)
VH: EVQLVQSGAEVKKPGASVKVSCKASGYTFTEHSIYWLRQAPGQRLEIMGRIDPKNGRTYFVDKFKNRATITTDTSASTAYMELSSLRSEDTAVYYCARIDGFYFDFWGQGTLVTVSS
VL: DIQLTQSPSFLSASVGDRVTITCKGSQNVNKYLVWYQQKPGKAPKLLIYSTDNLQSGVPSRFSGSGSGTEYTLTISSLQPEDFATYYCYQYNNGFTFGQGTKVEIK
notes: Final humanized 15C8; keeps rat VH I47, L37, A67, T71 and VL Y71; FR/HVR pieces
Take B5: in the assay with human TIGIT protein [1], the Kd is 0.38 nM, the koff was 0.000421 s⁻¹ and the kon was 1.12e+06 M⁻¹ s⁻¹. In assay [2], this molecule had a Kd of 1.03 nM, a dissociation rate constant (koff) of 0.000613 s⁻¹ and a kon of 596000 M⁻¹ s⁻¹.

B6: h15C8.L5H1 (antibody, V domains shown)
VH: EVQLVQSGAEVKKPGASVKVSCKASGYTFTEHSIYWLRQAPGQRLEIIGRIDPKNGRTYFVDKFKNRATLTTDTSASTAYMELSSLRSEDTAVYFCARIDGFYFDFWGQGTLVTVSS
VL: DIQLTQSPSFLSASVGDRVTITCKGSQNVNKYLVWYQQKPGKAPKLLIYSTDNLQSGVPSRFSGSGSGTEFTLTISSLQPEDFATYYCYQYNNGFTFGQGTKVEIK
notes: VL: I58V, Y71F, F87Y against h15C8.L1H1; FR/HVR pieces
In the assay with human TIGIT protein [1], B6 came in with a Kd of 0.83 nM, a koff of 0.000562 s⁻¹ and a kon of 674000 M⁻¹ s⁻¹. In assay [2], this molecule gave a Kd of 2.68 nM, a koff of 0.000752 s⁻¹ and a kon of 281000 M⁻¹ s⁻¹.

B7: 4.1A4.Q1E.C96 (antibody, V domains shown)
VH: EVQLVQSGSELKKPGASVKVSCKASGYTLTNYPMNWVRQAPGRGLEWMGWINTNTGSPAYAQDFTERFVFSLDTSVTTAYLQISSLKAEDTAVYYCARTAITSVYHFDYWGQGTLVTVSS
VL: DIQLTQSPSFLSASVGDRVTITCRASQGISSYLAWYQQKPGKAPRVLIYGATTLQSGVPSRFSGSESGTEFTLTISSLQPEDLATYYCQKLNSHPCSFGQGTKVEIK
notes: built from its name as 4.1A4 with Q1E in VH and C96 kept in VL
As for B7, the Kd with human TIGIT protein [3] was found to be 3.6 nM; in assay [4], 2.4 nM.

B8: h6B2.L1H1 (antibody, V domains shown)
VH: EVTLKESGPALVKPTQTLTLTCTFSGFSLSTYGMGVSWIRQPPGKALEWLASIWWNGNTYYNPSLKSRLTVTKDASKNQAVLTMTNMDPVDTATYYCAHTGGAVITWFAYWGQGTLVTVSS
VL: DIQMTQSPSSLSASVGDRVTITCKASQSVGKNIAWYQQKPGKSPKLLIYYASNRYTGVPSRFSGSGSGTDFTFTISSLQPEDIATYYCQHIYNSPYPFGQGTKVEIK
notes: Humanized; FR/HVR pieces in order; also called h1.6B2.L1H1
For B8, the Kd with human TIGIT protein [1] came out at 0.54 nM; in assay [2] it was 0.96 nM; with human TIGIT protein [3], 0.54 nM; in assay [4] it was 0.96 nM. The koff was 0.00253 s⁻¹ with human TIGIT protein [1] and 0.00118 s⁻¹ in assay [2]. For the same molecule, the values for the kon (with human TIGIT protein [1]; in assay [2]) were 4.67e+06 M⁻¹ s⁻¹ and 1.23e+06 M⁻¹ s⁻¹, respectively.

B9: h10A5.L4H4 (antibody, V domains shown)
VH: EVTLKESGPALVKPTQTLTLTCTFSGFSLTTYGMGVSWIRQPPGKALEWLASIWWNGNTYYNPSLRSRLTITKDTSKNQVVLTMTNMDPVDTATYYCAHTGGAVITWFAYWGQGTLVTVSS
VL: EIVMTQSPATLSVSPGERATLSCKASQSVGKNIAWYQQKPGQAPRLLIYYASNRYTGIPARFSGSGSGTEFTLTISSLQSEDFAVYYCQHIYNSPYPFGQGTKVEIK
notes: Fully humanized version; FR/HVR pieces in order
Regarding B9, in the assay with human TIGIT protein [1], binding was characterised by a dissociation constant (Kd) of 0.44 nM, the koff turned out to be 0.00227 s⁻¹ and the kon amounted to 5.21e+06 M⁻¹ s⁻¹. In assay [2], this molecule came in with a Kd of 0.85 nM, a koff of 0.00129 s⁻¹ and a kon of 1.52e+06 M⁻¹ s⁻¹.

B10: h10A5.L1H1 (antibody, V domains shown)
VH: EVTLKESGPALVKPTQTLTLTCTFSGFSLTTYGMGVSWIRQPPGKALEWLASIWWNGNTYYNPSLRSRLTVTKDTSKNQAVLTMTNMDPVDTATYYCAHTGGAVITWFAYWGQGTLVTVSS
VL: EIVMTQSPATLSVSPGERATLSCKASQSVGKNIAWYQQKPGQSPRLLIYYASNRYTGVPARFSGSGSGTEFTLTISSLQSEDFAVYYCQHIYNSPYPFGQGTKVEIK
notes: Humanized; FR/HVR pieces in order; also called h1.10A5.L1H1
For B10, the Kd with human TIGIT protein [1] came out at 0.52 nM; in assay [2], 0.86 nM; with human TIGIT protein [3] it was 0.52 nM; in assay [4], 0.86 nM. Also, the figures for the koff (with human TIGIT protein [1]; in assay [2]) were 0.00238 s⁻¹ and 0.00127 s⁻¹, respectively. The results for the kon (with human TIGIT protein [1]; in assay [2]) were 4.57e+06 M⁻¹ s⁻¹ and 1.47e+06 M⁻¹ s⁻¹, respectively.

B11: 7.4A3.Q1E.C96 (antibody, V domains shown)
VH: EVQLVQSGSDLKKPGASVRVSCKASGYTFTSYPMNWVRQAPGHGLEWMGWINTNTGNPTYVQGFTGRFVFSLDTSVNTAYLQISSLKAEDTAVYFCARTGGHTYDSYAFDVWGQGTMVTVSS
VL: DIQLTQSPTFLSASVGDRVTITCRASQVISSSLAWYQQNPGKAPKLLIYAASTLQSGVPSRFSGSGSGTEFTLTISSLQPEDFVTYYCQHLHGYPCNFGQGTKVEIK
notes: built from its name as 7.4A3 with Q1E in VH and C96 kept in VL
As to B11, the Kd in the assay with human TIGIT protein [3] was determined as 3.45 nM; in assay [4], 2.09 nM.

By Kd is commonly meant the equilibrium constant for the complex coming apart. As usually defined, the koff is the rate constant with which the complex falls apart. For orientation: kon means a measure of how fast the partners come together.
